What all share (assay): SPR
(In general: SPR reads the build-up and loss of mass on a sensor chip optically.)

Assay [1] addresses Human recombinant CD16B (human) (UniProt O75015).
Assay [2] deals with Human recombinant CD32B (human) (UniProt P31994).
Another assay addresses CD32A-131H (human) (UniProt P12318).
For assay [3], the target named is Human recombinant CD16A-158V (human).
In a further assay the target is CD32A-131R (human).
The target in assay [4] is Human recombinant CD16A-158F (human) (UniProt P08637).
Sequence of UniProt P08637 (P08637 17-208): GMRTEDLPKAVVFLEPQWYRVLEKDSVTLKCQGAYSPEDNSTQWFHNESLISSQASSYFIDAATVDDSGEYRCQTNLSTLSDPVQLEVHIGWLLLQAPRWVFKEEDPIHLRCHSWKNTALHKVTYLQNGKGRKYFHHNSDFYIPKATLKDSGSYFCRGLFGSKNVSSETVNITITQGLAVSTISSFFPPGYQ

Results on two substances are retold here after article PMC4948116.

Sequence of UniProt O75015 (O75015 17-200): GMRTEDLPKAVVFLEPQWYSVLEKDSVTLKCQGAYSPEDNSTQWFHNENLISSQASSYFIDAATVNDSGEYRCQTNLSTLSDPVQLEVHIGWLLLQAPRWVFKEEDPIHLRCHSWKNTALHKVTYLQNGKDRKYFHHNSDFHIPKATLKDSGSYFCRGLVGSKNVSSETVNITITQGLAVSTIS
Sequence of UniProt P12318 (P12318 34-317): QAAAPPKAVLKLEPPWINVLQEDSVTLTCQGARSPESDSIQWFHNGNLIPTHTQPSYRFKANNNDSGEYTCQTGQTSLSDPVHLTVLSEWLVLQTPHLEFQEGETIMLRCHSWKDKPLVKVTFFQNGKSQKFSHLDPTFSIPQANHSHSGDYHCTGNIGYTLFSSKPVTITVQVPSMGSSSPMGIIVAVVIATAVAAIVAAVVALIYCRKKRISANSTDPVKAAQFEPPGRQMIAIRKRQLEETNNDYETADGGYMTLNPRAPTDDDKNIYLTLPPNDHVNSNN
Sequence of UniProt P31994 (P31994 43-217): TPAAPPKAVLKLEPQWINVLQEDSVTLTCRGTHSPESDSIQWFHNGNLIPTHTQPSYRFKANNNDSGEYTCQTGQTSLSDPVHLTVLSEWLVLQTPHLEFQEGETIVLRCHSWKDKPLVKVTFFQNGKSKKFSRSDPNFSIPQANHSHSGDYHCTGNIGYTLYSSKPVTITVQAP

For orientation: Kd means the constant that tells how readily two partners part at equilibrium. Regarding hu3F8-IgG1 (antibody), the dissociation constant Kd in assay [1] came to 2.03 µM; in assay [2], 2.4 µM; with CD32A-131H (human), 0.541 µM; in assay [3], 0.726 µM; with CD32A-131R (human) it was 0.786 µM; in assay [4], 2.09 µM. For the same substance, in assay [3], the ka1 (two-state reaction, first step) came to 134000 M⁻¹ s⁻¹. Also, in assay [3], the kd1 (two-state reaction, first step) amounted to 0.212 s⁻¹. Besides, the kd2 (two-state reaction, second step) in assay [3] is 0.00897 s⁻¹.

For hu3F8-IgG1-DEL (antibody), in assay [4], the affinity relative to hu3F8-IgG1 on CD16A(158F) was determined as 16 fold.
